Laboratory results reported in patent US20260217779.
Residue numbers refer to the chain shown, from its start.

What was measured:
[1] = target: T1, hCXCL11.0033-G1T4k.one//VHn-G1T4h.one.H435R
T1 chain 1: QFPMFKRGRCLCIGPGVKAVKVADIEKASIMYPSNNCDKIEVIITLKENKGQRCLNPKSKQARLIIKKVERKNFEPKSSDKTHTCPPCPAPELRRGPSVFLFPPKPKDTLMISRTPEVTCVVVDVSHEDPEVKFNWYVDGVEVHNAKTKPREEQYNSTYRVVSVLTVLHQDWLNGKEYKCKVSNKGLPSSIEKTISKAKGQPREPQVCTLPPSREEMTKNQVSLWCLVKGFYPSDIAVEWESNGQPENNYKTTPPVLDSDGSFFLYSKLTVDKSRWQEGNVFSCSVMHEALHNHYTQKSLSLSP
T1 chain 2: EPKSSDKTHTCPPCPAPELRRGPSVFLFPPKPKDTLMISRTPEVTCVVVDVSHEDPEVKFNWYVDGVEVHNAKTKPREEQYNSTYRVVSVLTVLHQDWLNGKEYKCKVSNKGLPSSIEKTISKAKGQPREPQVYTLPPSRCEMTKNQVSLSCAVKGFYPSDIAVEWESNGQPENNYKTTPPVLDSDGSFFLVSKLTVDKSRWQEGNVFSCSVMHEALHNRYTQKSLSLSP

[2] = target: T2, hITIP0031-G1T4k.one//VHn-G1T4h.one.H435R
T2 chain 1: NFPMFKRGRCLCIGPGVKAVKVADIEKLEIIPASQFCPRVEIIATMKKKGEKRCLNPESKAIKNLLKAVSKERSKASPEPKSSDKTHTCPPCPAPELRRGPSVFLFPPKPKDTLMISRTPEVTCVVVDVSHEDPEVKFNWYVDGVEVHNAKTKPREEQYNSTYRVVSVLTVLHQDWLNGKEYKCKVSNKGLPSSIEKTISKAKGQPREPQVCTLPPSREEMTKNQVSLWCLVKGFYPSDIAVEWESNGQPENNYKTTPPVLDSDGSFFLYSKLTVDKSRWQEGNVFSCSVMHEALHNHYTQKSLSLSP
T2 chain 2: T1 chain 2

[3] = target: T3, hCXCL11.0021-G1T4k.one//VHn-G1T4h.one.H435R
T3 chain 1: T1 chain 1 with Q1A
T3 chain 2: T1 chain 2

[4] = target: T4, hITIP0023-G1T4k.one//VHn-G1T4h.one.H435R
T4 chain 1: T2 chain 1 with N1E
T4 chain 2: T1 chain 2

[5] = target: T5, hITIP0021-G1T4k.one//VHn-G1T4h.one.H435R
T5 chain 1: T2 chain 1 with N1A
T5 chain 2: T1 chain 2

[6] = target: T6, hITIP0036-G1T4k.one//VHn-G1T4h.one.H435R
T6 chain 1: T2 chain 1 with N1T
T6 chain 2: T1 chain 2

[7] = target: T7, hITIP0025-G1T4k.one//VHn-G1T4h.one.H435R
T7 chain 1: T2 chain 1 with N1G
T7 chain 2: T1 chain 2

B1: human dipeptidyl peptidase IV (human DPPIV, hDPPIV) (Biolegend, 764102) (protein)
chain: NKGTDDATADSRKTYTLTDYLKNTYRLKLYSLRWISDHEYLYKQENNILVFNAEYGNSSVFLENSTFDEFGHSINDYSISPDGQFILLEYNYVKQWRHSYTASYDIYDLNKRQLITEERIPNNTQWVTWSPVGHKLAYVWNNDIYVKIEPNLPSYRITWTGKEDIIYNGITDWVYEEEVFSAYSALWWSPNGTFLAYAQFNDTEVPLIEYSFYSDESLQYPKTVRVPYPKAGAVNPTVKFFVVNTDSLSSVTNATSIQITAPASMLIGDHYLCDVTWATQERISLQWLRRIQNYSVMDICDYDESSGRWNCLVARQHIEMSTTGWVGRFRPSEPHFTLDGNSFYKIISNEEGYRHICYFQIDKKDCTFITKGTWEVIGIEALTSDYLYYISNEYKGMPGGRNLYKIQLSDYTKVTCLSCELNPERCQYYSVSFSKEAKYYQLRCSGPGLPLYTLHSSVNDKGLRVLEDNSALDKMLQNVQMPSKKLDFIILNETKFWYQMILPPHFDKSKKYPLLLDVYAGPCSQKADTVFRLNWATYLASTENIIVASFDGRGSGYQGDKIMHAINRRLGTFEVEDQIEAARQFSKMGFVDNKRIAIWGWSYGGYVTSMVLGSGSGVFKCGIAVAPVSRWEYYDSVYTERYMGLPTPEDNLDHYRNSTVMSRAENFKQVEYLLIHGTADDNVHFQQSAQISKALVDVGVDFQAMWYTDEDHGIASSTAHQHIYTHMSHFIKQCFSLP
cleavage by hDPPIV (LC/MS mass) [1]: showed no mass change suggestive of peptide bond cleavage by hDPPIV treatment
cleavage by hDPPIV (LC/MS mass) [2]: showed no mass change suggestive of peptide bond cleavage by hDPPIV treatment
cleavage by hDPPIV (LC/MS mass) [3]: showed no mass change suggestive of peptide bond cleavage by hDPPIV treatment
cleavage by hDPPIV (LC/MS mass) [4]: showed no mass change suggestive of peptide bond cleavage by hDPPIV treatment
cleavage by hDPPIV (LC/MS mass) [5]: showed no mass change suggestive of peptide bond cleavage by hDPPIV treatment
cleavage by hDPPIV (LC/MS mass) [6]: showed no mass change suggestive of peptide bond cleavage by hDPPIV treatment
cleavage by hDPPIV (LC/MS mass) [7]: showed no mass change suggestive of peptide bond cleavage by hDPPIV treatment
